Data: patent publication US20050079574A1 (Genentech, published 2005)
Where a chain is given by its changes, count along the chain named. Names and notes keep the numbering of the source.

B1: llama anti-HCG monobody variable heavy chain (VHH), wild type (VHH)
VHH: DVQLQESGGGLVQAGGSLRLSCAASGRTGSTYDMGWFRQAPGKERESVAAINWDSARTYYASSVRGRFTISRDNAKKTVYLQMNSLKPEDTAVYTCGAGEGGTWDSWGQGTQVTVSSAGGMDYKDDDDK
notes: also called wild type anti-HCG scaffold; llama a-HCG
B2: RIG scaffold (VHH) (VHH)
VHH: DVQLQESGGGLVQAGGSLRLSCAASGRTGSTYDMGWFRQAPGKERESVAAINWDSARTYYASSVRGRFTISRDNAKKTVYLQMNSLKPEDTAVYTCGAGRIGRSVFNLRRESWVTWWGQGTQVTVSSAGGMDYKDDDDK
notes: also called RIG-Parent Scaffold; RIG VHH domain
B3: VLK scaffold (VHH) (VHH)
VHH: DVQLQESGGGLVQAGGSLRLSCAASGRTGSTYDMGWFRQAPGKERESVAAINWDSARTYYASSVRGRFTISRDNAKKTVYLQMNSLKPEDTAVYTCGAGVLKRRGSSVAIFTRVQSWGQGTQVTVSSAGGMDYKDDDDK
B4: LLR scaffold (VHH) (VHH)
VHH: DVQLQESGGGLVQAGGSLRLSCAASGRTGSTYDMGWFRQAPGKERESVAAINWDSARTYYASSVRGRFTISRDNAKKTVYLQMNSLKPEDTAVYTCGAGLLRRGVNATPNWFGLVGWGQGTQVTVSSAGGMDYKDDDDK
B5: RLV scaffold (VHH) (VHH)
VHH: DVQLQESGGGLVQAGGSLRLSCAASGRTGSTYDMGWFRQAPGKERESVAAINWDSARTYYASSVRGRFTISRDNAKKTVYLQMNSLKPEDTAVYTCGAGRLVNGLSGLVSWEMPLAWGQGTQVTVSSAGGMDYKDDDDK
B6: RIG scaffold alanine point mutant S100A (VHH, name in Kabat numbering)
VHH: B2 VHH with S104A
B7: RIG scaffold alanine point mutant V100jA (VHH, name in Kabat numbering)
VHH: B2 VHH with V114A
B8: RIG scaffold with mutation T57E (VHH, name in Kabat numbering)
VHH: B2 VHH with T58E

Target: T1, Protein A (UniProt P38507 37-477)
T1 construct: also called Protein A (Sigma)
Assay: BiaCore 3000, Protein A on CM5 chip, steady state fit
Description: The affinity for Protein A for each of the individual clones was determined using a BiaCore 3000. Protein A was coated onto CM5 chip, as was BSA and VEGF. The latter two proteins were used as negative controls. Binding isotherms were calculated the steady state response differentials for a series of protein concentrations. The equilibrium dissociation constant (Kd) was determined by fitting the resulting curves (KaleidaGraph, Synergy Software) to the following equation: Ra=[…](Rmax−Rmin)/((1+C/Kd)ⁿ) Where “Ra” is the measured response differential, “Rmax” is the maximal response differential, “Rmin” the minimal response differential and “C” is the ligand concentration. Analysis of NNS Library

| Binder | Kd |
| --- | --- |
| B1 | 1600 nM |
| B2 | 800 nM |
| B3 | 900 nM |
| B4 | 3300 nM |
| B5 | 1800 nM |

Target: T1, Protein A
Assay: BiaCore, Protein A on CM5 chip

| Binder | Kd |
| --- | --- |
| B2 | 800 nM |
| B6 | 600 nM |
| B7 | 800 nM |

Target: T1, Protein A
Assay: Biacore

| Binder | binding result |
| --- | --- |
| B8 | no binding |
